This note sets out measurements from US20040253646A1, “Pre-mrna splicing screening assay” (priority 2001, published 2004).

For the assay, the target named is T1, CDC5L/PLRG1 interaction in HeLa nuclear extract (Homo sapiens, UniProt O43660+Q99459).
T1 construct: wild type CDC5L immunoprecipitated from the extract using a peptide anti-CDC5L antibody; endogenous in cells; host or cells: HeLa nuclear extract
In words: disruption of CDC5L/PLRG1 interaction in HeLa nuclear extract (co-immunoprecipitation with anti-CDC5L). It counts as binding. As for the experimental part: (A) ΔCDC5Lh or ΔPLRG1f (approximately 1 nmole) was added to approximately 100 μg of HeLa nuclear extract followed by immunoprecipitation using about 15-20 μg rabbit anti-CDC5L antibodies. The immunoprecipitates were subsequently probed with sheep polyclonal anti-CDC5L and anti-PLRG1 antibodies. Lane 1 contained nuclear extract alone. […] Lanes 4 and 5 contained negative control immunoprecipitation reactions using antibodies to HCF (a nuclear protein) and rabbit pre-immune IgG. The panels labelled i and ii were probed with anti-CDC5L and anti-PLRG1 antibodies respectively. The arrows on the right of the figure indicate the protein bands.
Immunoprecipitations of the spliceosomal proteins from nuclear extract were done using affinity purified peptide antibodies. 50 μl of nuclear extract (4-5 mg/ml) were pre-cleared for 1 hr at 4° C. on 25 μl of settled protein G or A sepharose (Pharmacia) or protein G/A agarose beads (Boehringer) that had been pre-incubated with 10 μg of sheep pre-immune IgG. The pre-cleared nuclear extract was diluted 10 times (except in immunodepletion experiments) with PBS buffer containing 0.5% Triton X-100 before adding to protein-G sepharose or agarose beads (25 μl) that had been pre-incubated with 30 pmoles of antibody for 1 hr at 4° C. Immunoprecipitations were carried out at 4° C. for 2-16 hrs. The immunoprecipitates were washed three times at 4° C. with 1 ml PBS containing 0.5% Triton X-100. Protein-G beads carrying the immune complexes were collected after each wash by centrifugation at 1500 g for 1 min. For immunodepletion experiments a higher amount of antibody (0.33 nmole/250 μg) of HeLa nuclear extract were used during the immunoprecipitation step.
SDS PAGE gel analysis was done as described previously (Laemmli, 1970). […] Protein bands were detected by developing blots with the ECL kit (Amersham) according to the manufacturer's instructions or using NBT (60 μl of a 30 mg/ml solution)/BCIP (60 μl of a 25 mg/ml solution) in 10 ml of alkaline phosphatase buffer (0.1M NaHCO3, 1 mM MgCl2, pH 9.8) for colorimetric detection on the membrane. […]

T1 sequence (Q99459 whole entry): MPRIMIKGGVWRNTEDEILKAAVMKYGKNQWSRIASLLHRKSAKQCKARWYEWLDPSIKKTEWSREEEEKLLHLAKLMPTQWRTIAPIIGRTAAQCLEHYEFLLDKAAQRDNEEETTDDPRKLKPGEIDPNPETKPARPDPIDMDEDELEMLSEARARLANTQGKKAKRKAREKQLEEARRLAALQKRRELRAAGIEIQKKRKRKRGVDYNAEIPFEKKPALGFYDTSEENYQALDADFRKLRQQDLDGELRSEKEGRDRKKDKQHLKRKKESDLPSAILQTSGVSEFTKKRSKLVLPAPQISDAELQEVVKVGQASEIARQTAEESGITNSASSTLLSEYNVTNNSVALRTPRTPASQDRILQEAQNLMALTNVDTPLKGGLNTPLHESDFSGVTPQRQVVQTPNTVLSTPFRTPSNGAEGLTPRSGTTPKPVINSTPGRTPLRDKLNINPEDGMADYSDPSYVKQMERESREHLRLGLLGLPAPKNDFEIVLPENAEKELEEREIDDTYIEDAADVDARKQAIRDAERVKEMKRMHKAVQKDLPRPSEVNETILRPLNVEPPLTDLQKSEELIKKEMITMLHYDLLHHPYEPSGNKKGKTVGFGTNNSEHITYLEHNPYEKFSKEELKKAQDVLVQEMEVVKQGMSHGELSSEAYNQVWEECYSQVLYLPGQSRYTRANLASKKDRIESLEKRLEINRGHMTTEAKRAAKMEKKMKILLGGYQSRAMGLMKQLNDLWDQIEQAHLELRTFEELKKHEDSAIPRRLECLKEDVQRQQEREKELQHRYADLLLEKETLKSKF
T1 sequence (O43660 whole entry): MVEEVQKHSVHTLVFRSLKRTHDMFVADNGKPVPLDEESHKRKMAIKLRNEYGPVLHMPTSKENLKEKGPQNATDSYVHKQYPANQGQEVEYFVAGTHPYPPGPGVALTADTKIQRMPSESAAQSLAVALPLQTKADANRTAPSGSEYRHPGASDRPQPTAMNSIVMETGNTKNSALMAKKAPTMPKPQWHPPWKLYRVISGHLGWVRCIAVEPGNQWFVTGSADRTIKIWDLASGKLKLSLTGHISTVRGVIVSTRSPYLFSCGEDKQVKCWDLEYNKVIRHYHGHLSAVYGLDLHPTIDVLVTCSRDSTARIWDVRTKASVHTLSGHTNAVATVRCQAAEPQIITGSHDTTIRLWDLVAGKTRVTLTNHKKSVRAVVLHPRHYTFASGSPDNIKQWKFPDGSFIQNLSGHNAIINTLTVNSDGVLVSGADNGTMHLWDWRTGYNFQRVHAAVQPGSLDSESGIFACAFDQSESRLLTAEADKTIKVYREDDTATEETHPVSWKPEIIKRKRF

B1: ΔCDC5Lh: CDC5L carboxyl terminal mutant protein from region h, amino acids 602-800, expressed in E. coli (protein, UniProt Q99459 602-800, looked up, fragment)
chain: TVGFGTNNSEHITYLEHNPYEKFSKEELKKAQDVLVQEMEVVKQGMSHGELSSEAYNQVWEECYSQVLYLPGQSRYTRANLASKKDRIESLEKRLEINRGHMTTEAKRAAKMEKKMKILLGGYQSRAMGLMKQLNDLWDQIEQAHLELRTFEELKKHEDSAIPRRLECLKEDVQRQQEREKELQHRYADLLLEKETLKS
In the case of B1, the “disruption of CDC5L/PLRG1 interaction (co-immunoprecipitation of PLRG1 by anti-CDC5L antibodies)” value (approximately 1 nmole added to approximately 100 μg HeLa nuclear extract, FIG. 7A) was “will disrupt the CDC5L/PLRG1 interaction”. Moreover, the “disruption of CDC5L/PLRG1 complex when pre-incubated with ΔPLRG1f” value (ΔCDC5Lh pre-incubated with ΔPLRG1f, FIG. 7Aii lane 7) is “is blocked”.
